Measurements reported in patent US20250000973A1 (Novartis, published 2025).

Molecular target: T1, BCMA (TNFRSF17), human plasma membrane protein array (human, UniProt Q02223 1-184)
T1 construct: also called B-cell maturation antigen
T1 sequence (looked up): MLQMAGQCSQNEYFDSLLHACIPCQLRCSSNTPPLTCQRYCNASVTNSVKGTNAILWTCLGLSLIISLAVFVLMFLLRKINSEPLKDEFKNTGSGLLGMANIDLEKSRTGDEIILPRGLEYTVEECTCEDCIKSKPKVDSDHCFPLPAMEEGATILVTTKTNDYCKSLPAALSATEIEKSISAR
Experiment: commercial human plasma membrane protein array

B1: anti-human BCMA single chain antibody variable fragment (scFv) (PI61) (scFv)
scFv: QVQLQESGGGVVQPGRSLRLSCAASGFTFSSYGMHWVRQAPGKGLEWVAVISYDGSNKYYADSVKGRFTISRDNSKNTLYLQMNSLRAEDTAVYYCGGSGYALHDDYYGLDVWGQGTLVTVSSGGGGSGGGGSGGGGSQSALTQPASVSGSPGQSITISCTGTSSDVGGYNYVSWYQQHPGKAPKLMIYDVSNRPSGVSNRFSGSKSGNTASLTISGLQAEDEADYYCSSYTSSSTLYVFGSGTKVTVL
notes: also called PI61 scFv
B1: binds.
